Biological target: T1, human BiP (Homo sapiens, UniProt P11021)
T1 construct: The human BiP gene except the signal peptide encoding region was obtained from Geneart (Germany); linker […]; made in house; host or cells: HEK 293E cells, transient transfection, PABC674 vector; secreted into the medium
Assay: Competition ELISA: BiP binding to misfolded proteins under influence of crossbeta binding compounds
Settings: fixed sub-optimal BiP concentration
Method: Binding of chaperones to immobilized (misfolded) protein ligands was determined using an enzyme linked immuno sorbent assay (ELISA) approach. For this purpose 50 μl/well of potential ligands at indicated concentrations or coat buffer only for control and background measurement purposes, were coated overnight at 4° C. or coated for 1 h at room temperature, with motion, in 50 mM NaHCO3 pH 9.6 (coat buffer). In general, ligands were coated at 5 μg/ml, unless stated otherwise. For example, BiP binding peptides 6BB# and oxLDL were coated at 50 μg/ml. Native haemoglobin (Sigma-Aldrich, H7379), albumin, IgIV Gammagard and ovalbumin controls were prepared from lyophilized stocks. The controls were prepared by dissolving lyophilized proteins at 1 mg/ml in PBS upon resuspending by pipetting, followed by a 30 minutes period at the roller device, at room temperature. The protein solutions were centrifuged for 10 minutes at 16,000*g and diluted in coat buffer. After coating the plates were washed at least three times with 50 mM Tris-HCl pH 7.3, 150 mM NaCl, 0.1% v/v Tween20, and blocked with Blocking reagent (Roche Diagnostics, Almere, The Netherlands; 11112589001), for 1 h at room temperature, with motion. Plates were washed three times and incubated in triplicate with indicated chaperone dilution series, at 50 μl/well, for 1 h at room temperature, with constant motion. For HSP90, 5 mM DTT is incorporated in the binding buffer (PBS/0.1% Tween20) to avoid unwanted disulfide bond formation of the HSP90. […] After four wash cycles, secondary antibodies were added to the wells when required, 50 μl/well, for 45′ at room temperature, with motion. RAMPO and SWARPO were used at 3000 times dilution. […] In a second experiment with more immobilized misfolded proteins and controls, the detection of bound HSP90 with the mix of two anti-HSP90 antibodies was achieved by mixing 1:1500 SWARPO with 1:3000 RAMPO. After 5 washes with wash buffer followed by two washes with PBS, binding of antibodies was assessed. […] Plates were read at 450 nm. Triplicates were averaged and standard deviations calculated. […] Subsequently, sub-optimal concentrations of chaperones for binding to misfolded protein ligands are determined, and these concentrations are used for inhibition studies.
In a subsequent study we analysed whether BiP interacts directly with the crossbeta structure, by performing ELISA binding studies with a fixed sub-optimal concentration of BiP and concentration series of crossbeta binding compounds. […]

T1 sequence (P11021 19-654): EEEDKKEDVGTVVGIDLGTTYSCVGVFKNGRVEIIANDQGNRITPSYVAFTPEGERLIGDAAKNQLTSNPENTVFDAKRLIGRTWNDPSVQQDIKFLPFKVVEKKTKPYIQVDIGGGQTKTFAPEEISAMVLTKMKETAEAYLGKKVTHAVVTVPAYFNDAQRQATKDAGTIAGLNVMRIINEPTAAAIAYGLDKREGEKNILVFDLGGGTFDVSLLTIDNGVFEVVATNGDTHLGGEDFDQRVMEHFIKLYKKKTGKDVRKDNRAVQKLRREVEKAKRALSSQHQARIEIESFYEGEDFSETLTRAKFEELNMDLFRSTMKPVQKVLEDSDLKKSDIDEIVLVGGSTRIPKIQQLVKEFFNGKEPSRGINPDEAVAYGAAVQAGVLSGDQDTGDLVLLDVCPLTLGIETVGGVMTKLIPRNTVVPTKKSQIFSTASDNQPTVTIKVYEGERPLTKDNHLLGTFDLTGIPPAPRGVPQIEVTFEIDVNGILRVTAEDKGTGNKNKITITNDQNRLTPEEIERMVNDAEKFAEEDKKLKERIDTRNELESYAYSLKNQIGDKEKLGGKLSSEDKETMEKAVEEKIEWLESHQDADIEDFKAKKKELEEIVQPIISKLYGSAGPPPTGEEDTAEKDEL

B1: dOVA standard: heat-denatured chicken ovalbumin (protein)
chain: GSIGAASMEFCFDVFKELKVHHANENIFYCPIAIMSALAMVYLGAKDSTRTQINKVVRFDKLPGFGDSIEAQCGTSVNVHSSLRDILNQITKPNDVYSFSLASRLYAEERYPILPEYLQCVKELYRGGLEPINFQTAADQARELINSWVESQTNGIIRNVLQPSSVDSQTAMVLVNAIVFKGLWEKAFKDEDTQAMPFRVTEQESKPVQMMYQIGLFRVASMASEKMKILELPFASGTMSMLVLLPDEVSGLEQLESIINFEKLTEWTSSNVMEERKIKVYLPRMKMEEKYNLTSVLMAMGITDVFSSSANLSGISSAESLKISQAVHAAHAEINEAGREVVGSAEAGVDAASVSEEFRADHPFLFCIKHIATNAVLFFGRCVSP
Influence of K2P tPA on interaction of BiP with misfolded protein (10 mM ε-amino caproic acid): −
Influence of tPA on interaction of BiP with misfolded protein (10 mM ε-amino caproic acid): ↓ (a ↓ sign refers to inhibited abolished binding of BiP)
Influence of Congo red on interaction of BiP with misfolded protein (concentration series of Congo red): ↓ (a ↓ sign refers to inhibited abolished binding of BiP)
Influence of ThS on interaction of BiP with misfolded protein (concentration series of ThS): ↓ (a ↓ sign refers to inhibited abolished binding of BiP)

Reference: patent US20100015126A1, “Methods of Binding of Cross-Beta Structures By Chaperones” (priority 2006, published 2010)
